# Measurements published in patent publication US20210253648A1.
# Molecular target: HLA-A2 MHC class I molecule on the surface of the target cells (no C2 peptide added) (human)
substance,measurement,value
"TCR CMV-pp65-PE STAR multimer reagent (Soluble T-Cell Antigen Receptor STAR Multimer, Altor Bioscience)",Percentage of Positive Cells,0.96%
same,iMFI,70 RFU
